# Measured values from patent US20130005646A1 (Novo Nordisk, published 2013).
# Starred links: 1 amine or outer side, 2 acyl side, 3 side chain; linkers in the order of their positions; H or OH if unused. Positions of bridges follow the written chain, without caps; N, C: chain ends. *: point of attachment. C20 diacid = O=C(O)CCCCCCCCCCCCCCCCCCC(=O)*; γGlu = O=C(O)[C@H](CCC(=O)[*:2])N[*:1]
# T1: human amylin 3(a) receptor (human calcitonin receptor + RAMP-3) (human, UniProt P30988 25-474; O60896 24-148)
# T1 sequence (looked up) 1: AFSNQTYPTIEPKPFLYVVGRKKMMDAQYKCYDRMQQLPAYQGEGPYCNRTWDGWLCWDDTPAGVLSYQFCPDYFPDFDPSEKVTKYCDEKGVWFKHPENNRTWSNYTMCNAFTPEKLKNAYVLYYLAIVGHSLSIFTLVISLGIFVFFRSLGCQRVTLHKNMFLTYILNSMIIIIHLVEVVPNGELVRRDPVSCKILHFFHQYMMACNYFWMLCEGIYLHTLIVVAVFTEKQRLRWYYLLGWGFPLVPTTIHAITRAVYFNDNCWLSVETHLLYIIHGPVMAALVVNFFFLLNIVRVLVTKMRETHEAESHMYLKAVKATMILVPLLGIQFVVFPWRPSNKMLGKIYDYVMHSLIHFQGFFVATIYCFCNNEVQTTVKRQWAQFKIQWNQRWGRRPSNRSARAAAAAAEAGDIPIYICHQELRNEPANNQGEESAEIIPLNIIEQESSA
# T1 sequence (looked up) 2: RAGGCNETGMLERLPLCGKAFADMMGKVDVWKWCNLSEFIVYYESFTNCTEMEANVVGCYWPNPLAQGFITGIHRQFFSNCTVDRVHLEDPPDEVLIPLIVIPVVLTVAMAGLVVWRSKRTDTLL
# T2: human calcitonin (a) receptor (human, UniProt P30988 25-474)
# T2 sequence (looked up): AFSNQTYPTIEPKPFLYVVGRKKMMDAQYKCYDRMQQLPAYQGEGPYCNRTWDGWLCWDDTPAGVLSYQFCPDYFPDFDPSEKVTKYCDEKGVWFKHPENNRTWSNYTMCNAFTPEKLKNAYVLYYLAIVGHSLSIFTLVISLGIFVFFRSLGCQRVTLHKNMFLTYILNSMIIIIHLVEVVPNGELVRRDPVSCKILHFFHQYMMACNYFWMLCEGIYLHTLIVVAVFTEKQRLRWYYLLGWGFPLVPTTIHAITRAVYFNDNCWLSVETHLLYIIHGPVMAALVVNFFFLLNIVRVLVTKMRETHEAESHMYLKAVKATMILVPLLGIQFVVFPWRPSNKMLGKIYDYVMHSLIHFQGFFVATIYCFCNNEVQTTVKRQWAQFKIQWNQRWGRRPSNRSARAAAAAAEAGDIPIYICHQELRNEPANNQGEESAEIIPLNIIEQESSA
# Assays:
# [1] = molecular target: T1, human amylin 3(a) receptor (human …); test: cell-based or functional assay
# [2] = molecular target: T2, human calcitonin (a) receptor; test: cell-based or functional assay
Binder,Amylin receptor human EC50 [1],CTa receptor human EC50 [2]
"{C20 diacid-γGlu}-CNTATCATQRLAEFLHHSSNNFGPILPPTNVGSNTY-NH2 (disulfide 1-6; SMILES CC[C@H](C)[C@H](NC(=O)[C@@H]1CCCN1C(=O)CNC(=O)[C@H](Cc1ccccc1)NC(=O)[C@H](CC(N)=O)NC(=O)[C@H](CC(N)=O)NC(=O)[C@H](CO)NC(=O)[C@H](CO)NC(=O)[C@H](Cc1c[nH]cn1)NC(=O)[C@H](Cc1c[nH]cn1)NC(=O)[C@H](CC(C)C)NC(=O)[C@H](Cc1ccccc1)NC(=O)[C@H](CCC(=O)O)NC(=O)[C@H](C)NC(=O)[C@H](CC(C)C)NC(=O)[C@H](CCCNC(=N)N)NC(=O)[C@H](CCC(N)=O)NC(=O)[C@@H](NC(=O)[C@H](C)NC(=O)[C@@H]1CSSC[C@H](NC(=O)CC[C@H](NC(=O)CCCCCCCCCCCCCCCCCCC(=O)O)C(=O)O)C(=O)N[C@@H](CC(N)=O)C(=O)N[C@@H]([C@@H](C)O)C(=O)N[C@@H](C)C(=O)N[C@@H]([C@@H](C)O)C(=O)N1)[C@@H](C)O)C(=O)N[C@@H](CC(C)C)C(=O)N1CCC[C@H]1C(=O)N1CCC[C@H]1C(=O)N[C@H](C(=O)N[C@@H](CC(N)=O)C(=O)N[C@H](C(=O)NCC(=O)N[C@@H](CO)C(=O)N[C@@H](CC(N)=O)C(=O)N[C@H](C(=O)N[C@@H](Cc1ccc(O)cc1)C(N)=O)[C@@H](C)O)C(C)C)[C@@H](C)O) [N-alpha-[(S)-4-Carboxy-4-(19-carboxynonadecanoylamino)butyryl]-[des1,Glu14,His17]-pramlintide]",0.179 nM,0.259 nM
{C20 diacid-γGlu}-HHHCHTATCATQRLAEFLHHSSNNFGPILPHTNVGSHTY-NH2 (disulfide 4-9; SMILES CC[C@H](C)[C@H](NC(=O)[C@@H]1CCCN1C(=O)CNC(=O)[C@H](Cc1ccccc1)NC(=O)[C@H](CC(N)=O)NC(=O)[C@H](CC(N)=O)NC(=O)[C@H](CO)NC(=O)[C@H](CO)NC(=O)[C@H](Cc1c[nH]cn1)NC(=O)[C@H](Cc1c[nH]cn1)NC(=O)[C@H](CC(C)C)NC(=O)[C@H](Cc1ccccc1)NC(=O)[C@H](CCC(=O)O)NC(=O)[C@H](C)NC(=O)[C@H](CC(C)C)NC(=O)[C@H](CCCNC(=N)N)NC(=O)[C@H](CCC(N)=O)NC(=O)[C@@H](NC(=O)[C@H](C)NC(=O)[C@@H]1CSSC[C@H](NC(=O)[C@H](Cc2c[nH]cn2)NC(=O)[C@H](Cc2c[nH]cn2)NC(=O)[C@H](Cc2c[nH]cn2)NC(=O)CC[C@H](NC(=O)CCCCCCCCCCCCCCCCCCC(=O)O)C(=O)O)C(=O)N[C@@H](Cc2c[nH]cn2)C(=O)N[C@@H]([C@@H](C)O)C(=O)N[C@@H](C)C(=O)N[C@@H]([C@@H](C)O)C(=O)N1)[C@@H](C)O)C(=O)N[C@@H](CC(C)C)C(=O)N1CCC[C@H]1C(=O)N[C@@H](Cc1c[nH]cn1)C(=O)N[C@H](C(=O)N[C@@H](CC(N)=O)C(=O)N[C@H](C(=O)NCC(=O)N[C@@H](CO)C(=O)N[C@@H](Cc1c[nH]cn1)C(=O)N[C@H](C(=O)N[C@@H](Cc1ccc(O)cc1)C(N)=O)[C@@H](C)O)C(C)C)[C@@H](C)O),1.03 nM,0.484 nM
"{C20 diacid-γGlu}-ECNTATCATQRLAEFLHHSSNNFGPILPPTNVGSNTY-NH2 (disulfide 2-7; SMILES CC[C@H](C)[C@H](NC(=O)[C@@H]1CCCN1C(=O)CNC(=O)[C@H](Cc1ccccc1)NC(=O)[C@H](CC(N)=O)NC(=O)[C@H](CC(N)=O)NC(=O)[C@H](CO)NC(=O)[C@H](CO)NC(=O)[C@H](Cc1c[nH]cn1)NC(=O)[C@H](Cc1c[nH]cn1)NC(=O)[C@H](CC(C)C)NC(=O)[C@H](Cc1ccccc1)NC(=O)[C@H](CCC(=O)O)NC(=O)[C@H](C)NC(=O)[C@H](CC(C)C)NC(=O)[C@H](CCCNC(=N)N)NC(=O)[C@H](CCC(N)=O)NC(=O)[C@@H](NC(=O)[C@H](C)NC(=O)[C@@H]1CSSC[C@H](NC(=O)[C@H](CCC(=O)O)NC(=O)CC[C@H](NC(=O)CCCCCCCCCCCCCCCCCCC(=O)O)C(=O)O)C(=O)N[C@@H](CC(N)=O)C(=O)N[C@@H]([C@@H](C)O)C(=O)N[C@@H](C)C(=O)N[C@@H]([C@@H](C)O)C(=O)N1)[C@@H](C)O)C(=O)N[C@@H](CC(C)C)C(=O)N1CCC[C@H]1C(=O)N1CCC[C@H]1C(=O)N[C@H](C(=O)N[C@@H](CC(N)=O)C(=O)N[C@H](C(=O)NCC(=O)N[C@@H](CO)C(=O)N[C@@H](CC(N)=O)C(=O)N[C@H](C(=O)N[C@@H](Cc1ccc(O)cc1)C(N)=O)[C@@H](C)O)C(C)C)[C@@H](C)O) [N-alpha-[(S)-4-Carboxy-4-(19-carboxynonadecanoylamino)butyryl]-[Glu1,Glu14,His17]-pramlintide]",0.377 nM,0.657 nM

# Second part, the binder after the results:
Amylin receptor human EC50 [1],CTa receptor human EC50 [2],Binder
0.174 nM,0.753 nM,"{C20 diacid-γGlu}-ECNTATCATQRLAEFLHRSSNNFGPILPPTNVGSNTY-NH2 (disulfide 2-7; SMILES CC[C@H](C)[C@H](NC(=O)[C@@H]1CCCN1C(=O)CNC(=O)[C@H](Cc1ccccc1)NC(=O)[C@H](CC(N)=O)NC(=O)[C@H](CC(N)=O)NC(=O)[C@H](CO)NC(=O)[C@H](CO)NC(=O)[C@H](CCCNC(=N)N)NC(=O)[C@H](Cc1c[nH]cn1)NC(=O)[C@H](CC(C)C)NC(=O)[C@H](Cc1ccccc1)NC(=O)[C@H](CCC(=O)O)NC(=O)[C@H](C)NC(=O)[C@H](CC(C)C)NC(=O)[C@H](CCCNC(=N)N)NC(=O)[C@H](CCC(N)=O)NC(=O)[C@@H](NC(=O)[C@H](C)NC(=O)[C@@H]1CSSC[C@H](NC(=O)[C@H](CCC(=O)O)NC(=O)CC[C@H](NC(=O)CCCCCCCCCCCCCCCCCCC(=O)O)C(=O)O)C(=O)N[C@@H](CC(N)=O)C(=O)N[C@@H]([C@@H](C)O)C(=O)N[C@@H](C)C(=O)N[C@@H]([C@@H](C)O)C(=O)N1)[C@@H](C)O)C(=O)N[C@@H](CC(C)C)C(=O)N1CCC[C@H]1C(=O)N1CCC[C@H]1C(=O)N[C@H](C(=O)N[C@@H](CC(N)=O)C(=O)N[C@H](C(=O)NCC(=O)N[C@@H](CO)C(=O)N[C@@H](CC(N)=O)C(=O)N[C@H](C(=O)N[C@@H](Cc1ccc(O)cc1)C(N)=O)[C@@H](C)O)C(C)C)[C@@H](C)O) [N-alpha-[(S)-4-Carboxy-4-(19-carboxynonadecanoylamino)butyryl]-[Glu1,Glu14,His17,Arg18]-pramlintide]"
0.286 nM,0.801 nM,{C20 diacid-γGlu}-HHHCHTATCATQRLAEFLHHSSNNFGPILPPTNVGSNTY-NH2 (disulfide 4-9; SMILES CC[C@H](C)[C@H](NC(=O)[C@@H]1CCCN1C(=O)CNC(=O)[C@H](Cc1ccccc1)NC(=O)[C@H](CC(N)=O)NC(=O)[C@H](CC(N)=O)NC(=O)[C@H](CO)NC(=O)[C@H](CO)NC(=O)[C@H](Cc1c[nH]cn1)NC(=O)[C@H](Cc1c[nH]cn1)NC(=O)[C@H](CC(C)C)NC(=O)[C@H](Cc1ccccc1)NC(=O)[C@H](CCC(=O)O)NC(=O)[C@H](C)NC(=O)[C@H](CC(C)C)NC(=O)[C@H](CCCNC(=N)N)NC(=O)[C@H](CCC(N)=O)NC(=O)[C@@H](NC(=O)[C@H](C)NC(=O)[C@@H]1CSSC[C@H](NC(=O)[C@H](Cc2c[nH]cn2)NC(=O)[C@H](Cc2c[nH]cn2)NC(=O)[C@H](Cc2c[nH]cn2)NC(=O)CC[C@H](NC(=O)CCCCCCCCCCCCCCCCCCC(=O)O)C(=O)O)C(=O)N[C@@H](Cc2c[nH]cn2)C(=O)N[C@@H]([C@@H](C)O)C(=O)N[C@@H](C)C(=O)N[C@@H]([C@@H](C)O)C(=O)N1)[C@@H](C)O)C(=O)N[C@@H](CC(C)C)C(=O)N1CCC[C@H]1C(=O)N1CCC[C@H]1C(=O)N[C@H](C(=O)N[C@@H](CC(N)=O)C(=O)N[C@H](C(=O)NCC(=O)N[C@@H](CO)C(=O)N[C@@H](CC(N)=O)C(=O)N[C@H](C(=O)N[C@@H](Cc1ccc(O)cc1)C(N)=O)[C@@H](C)O)C(C)C)[C@@H](C)O)
0.272 nM,0.198 nM,{C20 diacid-γGlu}-HHHCNTATCATQRLAEFLHHSSNNFGPILPHTNVGSHTY-NH2 (disulfide 4-9; SMILES CC[C@H](C)[C@H](NC(=O)[C@@H]1CCCN1C(=O)CNC(=O)[C@H](Cc1ccccc1)NC(=O)[C@H](CC(N)=O)NC(=O)[C@H](CC(N)=O)NC(=O)[C@H](CO)NC(=O)[C@H](CO)NC(=O)[C@H](Cc1c[nH]cn1)NC(=O)[C@H](Cc1c[nH]cn1)NC(=O)[C@H](CC(C)C)NC(=O)[C@H](Cc1ccccc1)NC(=O)[C@H](CCC(=O)O)NC(=O)[C@H](C)NC(=O)[C@H](CC(C)C)NC(=O)[C@H](CCCNC(=N)N)NC(=O)[C@H](CCC(N)=O)NC(=O)[C@@H](NC(=O)[C@H](C)NC(=O)[C@@H]1CSSC[C@H](NC(=O)[C@H](Cc2c[nH]cn2)NC(=O)[C@H](Cc2c[nH]cn2)NC(=O)[C@H](Cc2c[nH]cn2)NC(=O)CC[C@H](NC(=O)CCCCCCCCCCCCCCCCCCC(=O)O)C(=O)O)C(=O)N[C@@H](CC(N)=O)C(=O)N[C@@H]([C@@H](C)O)C(=O)N[C@@H](C)C(=O)N[C@@H]([C@@H](C)O)C(=O)N1)[C@@H](C)O)C(=O)N[C@@H](CC(C)C)C(=O)N1CCC[C@H]1C(=O)N[C@@H](Cc1c[nH]cn1)C(=O)N[C@H](C(=O)N[C@@H](CC(N)=O)C(=O)N[C@H](C(=O)NCC(=O)N[C@@H](CO)C(=O)N[C@@H](Cc1c[nH]cn1)C(=O)N[C@H](C(=O)N[C@@H](Cc1ccc(O)cc1)C(N)=O)[C@@H](C)O)C(C)C)[C@@H](C)O)
